Experiment: soluble on expression in E. coli; label from the status in PepcDB or PDB records

Sequence | soluble on expression in E. coli
MGSDKIHHHHHHMSLAVTYTRAMIGVQAPDVYIEVHISSGLPALTLVGLPETTVKEARDRVRSALINCGFTFPAKRITVNLAPADLPKEGGRYDLPIALAILAASEQIDGEKLNRYEFLGELGLSGTLRGVNGAIPAALEAIKAGRQLILPDDNKREMTLIPQGEALMAGHLLQVCAFLSGEEELLSCSDMTPVPQPAEDTLDLKDIIGQEQAKRALEIAAAGGHNLLLLGPPGTGKTMLASRLGNLMPPLSDEEALESAAINSLINIDATMTRWRARPFRAPHHSSSMAALVGGGSLPKPGEISLAHNGVLFLDELPEFERRVLDSLREPLESGEIIISRTRAKVCYPARVQLVAAMNPSPSGHYQGIHNRLPAQQILRYLSKLSGPFLDRFDLSIEVPLLPPGVLSQQHYQGESSATIRERVLIARQIQLKRANKINALLTSREIERHCKLEMADAAYLEDVMNKLGLSVRAWHRILKVARTIADLGDRDNIEKKHLAEALSYRCMDRLLIQLHKSLE | not soluble
MKVYVVVPTYNESDNIVALMEKILAQRDNIHVLVVDDNSPDGTGEIAARMSSDNPRIHVLRRSGKMGLGSAYCDGFRVALRDGADFIIEMDADFSHDPATIPALLAATDKYDVVVGSRYLNGVSVVNWPIRRLMLSYFASVYTRFVTGLALRDCTSGFKCFRRRVIESVDLDTIRSDGYSFQIEMNYRCVERGFRVGEIPIIFIDRHAGSSKMSKKIVREAVLMVWKLKLGSLVKKLTRRGDRHAALEHHHHHH | soluble
MKLIGITGMPGSGKSAITKLAEKYKIVVVSMGDVVRYETLKQGMPLNPENVGNTAVKLREIYGKEAIAVPCLNYVNEKYNNEDFVIIEGIRSIYEVNYIKKHAELDIIAIHSSPKTRFERLSGRNREDDSNDWNTFVERDERELNFSIGRVISLADYMVVNEGNYMDFVNDLENTFKKIINVN | not soluble
VGQMVAVNGYKISVFVKGQGSQTLVFLSGAGTASPILDFKDVYDGFSKEYKIVVVERADYGYSEDTSKSRDVSVILSETRQSLAKSQVSGPYIILSHSMASLETLLWQENYPSEVKAVVCLDWAFPESYFQLKRHPQMLRLARWESQLGLLRLLPRQLYMPNENLSDSDRRLYQEIAYRQLLSQAMLNESLCAKENDKKVNSTSIKSQMPVLLMVSNGKGTGFGQEQWRHYATSFAKGQKNMEVTYYDSPHYFYHYQTKEMIRSIEEFVQETTD | not soluble
GPGSMWAQQLSLQKQTTKISPADKDAQALITANVFIEGNRMRVLKSMEQYQAVADSAYWNYGYMGGSMVTTMAICLSLSGRLPLLQRYASWISLAGGYFGGKAALGIHNARNLSHVVNTIDSAIVETRKMDEQYNFKIPDYAREVEALQRRKFELLPTSAEAIEARKNDLNNMPLDEKVDALVEAYEKRRQAVGKE | not soluble
MGSDKIHHHHHHMECVFGIDVSKENANVAVLVDNVVIKQFKIGLDRLGFSLLSDELNSFNAPLIIYEATAMYSRRLRAFLQRDGWKYTELNPLAAKKVMEEFRHTKTDALDAVGLARAMIKNHFRPTYQESPVYTELHDLERTYQQFNKDIVTNKNRLHRALQLTFPEIEHFMSSTDGVLYWHIVQRFPHPAIVLSHEENELTEIILTETSKKIGLKRAMKLANRLLALAQNSAPAKEPQSHAVRAVIALAKEVERINQLKAQIIVEMTTLGENLSEVPLLVSIPGIGIKTALCLIAELGDVRRFHSANAINAYIGIDLIRYESGQYEAKMHIRKRGNPYVRKILYRAILNIISVSQYQPTLISANYKRKKQSAQSHGTKKIAIAAMSQFNRLMHHLILNNELYDSTTFMPE | not soluble
MAIRLYKLAVALGVFIVSAPAFSHGHHSHGKPLTEVEQKAANGVFDDANVQNRTLSDWDGVWQSVYPLLQSGKLDPVFQKKADADKTKTFAEIKDYYHKGYATDIEMIGIEDGIVEFHRNNETTSCKYDYDGYKILTYKSGKKGVRYLFECKDPESKAPKYIQFSDHIIAPRKSSHFHIFMGNDSQQSLLNEMENWPTYYPYQLSSEEVVEEMMSH | soluble
MKKLTLREQQLVCLNILDYFHALCERYKISYSLGGGTLIGAIRHKGFIPWDDDIDVYMHRDEYQRFVDVWFQETHEHYNMETAEDILAQYTGEMAKIFDCRTQITDAKGRKSPMFMDIFIYDGVPNEPKIIYPLMKKHRRIKLRFSSCKKRWLRAKENTVQKAILNKLSHFLFSKMQKNLAQFQIKYPIKQCDYIGLVLSDYGGWQKSYMPKEYFNHVIYKEFEGRQFQVMNGYHEHLTQYYGDYMKLPPEEDQKPHHIQEAYILLEHHHHHH | not soluble
MRGSHHHHHHTDPALRATQKNFVELRNVTKRFGSNTVIDNINLTIPQGQMVTLLGPSGCGKTTILRLVAGLEKPSEGQIFIDGEDVTHRSIQQRDICMVFQSYALFPHMSLGENVGYGLKMLGVPRAELKARVKEALAMVDLEGFEDRFVDQISGGQQQRVALARALILKPKVLLFDEPLSNLDANLRRSMRDKIRELQKQFDITSLYVTHDQSEAFAVSDTVLVMNKGHIMQIGSPQDLYRQPASRFMASFMGDANLFPATFSDGYVDIYGYHLPRPLHFGTQGEGMVGVRPEAITLSDRGEESQRCVIRHVAYMGPQYEVTVEWHGQEILLQVNATRLQPDVGEQYYLEIHPYGMFVLADAAGLCGR | soluble
VRQLSQPLKRLVVAARQFGQGRSVRLPLGPETPSEMAEVYRAFNQMAEDIEQGGRERELMLAGVSHDLRTPLTRLRLSLELLPESEREMVEDMIRDIEDMDAILDQFLAFIRDGRDEPVEEGDLTDLVREVVAPFNQTREQVRMALQPVPAMPLRRVSMKRLLGNLIDNALNHGGGSVEVASYVAGESAAPYVVLSVLDRGQGIDPAEVDSIFNPFIRGDKARGGKGTGLGLAIVKRIAAQHGGSVELRNRDGGGLEARVCLPLGLLLPRGAA | not soluble
MGSDKIHHHHHHMMTEMQQRAQLHRQIWKIADEVRGAVDGWDFKQYVLGTLFYRFISENFTDYMQAGDSSIDYAAMPDSIITPEIKDDAVKVKGYFIYPGQLFCNIAAEAHQNEELNTKLKEIFTAIESSASGYPSEQGIKGLFDDFDTTSSRLGSTVADKNKRLAAVLKGVAELDFGNFEDHRIDLFGDAYEYLISNYAANAGKSGGEFFTPQSVSKLIARLAVHGQEKVNKIYDPACGSGSLLLQAKKQFDEHIIEEGFFGQEINHTTYNLARMNMFLHNVNYNKFHIELGDTLTNPKLKDSKPFDAVVSNPPYSIDWIGSDDPTLINDDRFAPAGVLAPKSKADFAFILHALNYLSGRGRAAIVSFPGIFYRGGAEQKIRQYLVEGNYVETVIALAPNLFYGTCIAVNILVLSKHKDNTDIQFIDASGFFKKETNNNVLTEEHIAEIVKLFADKADVPHIAQNAAQQTVKDNGYNLAVSSYVEAEDTREVIDIRQLNAEISETVAKIERLRREIDEVIAEIET | not soluble
MGSDKIHHHHHHMRGRGMDIFISKKMRNFILLAQTNNIARAAEKIHMTASPFGKSIAALEEQIGYTLFTRKDNNISLNKAGQELYQKLFPVYQRLSAIDNEIHNSGRRSREIVIGIDNTYPTIIFDQLISLGDKYEGVTAQPVEFSENGVIDNLFDRQLDFIISPQHVSARVQELENLTISELPPLRLGFLVSRRYEERQEQELLQELPWLQMRFQNRANFEAMIDANMRPCGINPTIIYRPYSFMAKISAVERGHFLTVIPHFAWRLVNPATLKYFDAPHRPMYMQEYLYSIRNHRYTATMLQHIAEDRDGTSH | not soluble
MGSDKIHHHHHHMTALTPAAFHSDRNRHDAHVARIREVRPGLRIHSDDATDEFDAVMSGQCSPGLHLVLLLEGALDVSYGSRRVVLTTDGRRTGRADRDAVRPAVRMQSFLLNAVEPDTFRRRLSKGGYARRLSLAMSGEWLGHLQAASRGVLPEQLGTMLSAHLAIRFWQPTPRATALAEQIVRPPAYQPMLQAIYLESRVLELLAEAFTPLETDAAQAADASLGSRDYRRMAELRAFLASDAAQALSIDDIARHAGMSANAMQRQFRAAYGTTVFDFVREHHLQRARLALERDAVSVKQAAALAGYTSAANFATAYKRRFGVTPTLARRSDKR | not soluble
MSLAPRDLIDIDRIFMEPAVADYPRGREILSRFPNAERIAVPSHWNIPELHGNEGSVEDWVRIKRSTLVLGVKKGLAMRPNGRSAHFIAPSTSNGCAMACAYCYVPRRKGFSNPISLFVNVEAVSAAIARHAAKQGPLPEPDQIDEAAWVYDLGENGDLSVDAMICDTVRDLVGLFRTLPNAKGSFATKAVNRDLLAYDPQGRTRIRFSLMPAPIARVVDVRTAPIRERIAAIDDFVAAGYEVHVNFSPVILYEGWEADWAELFAEIDGSISDAAKAQLKCEIIMLTHNAGLHEVNLGWHPKAEALLWRPDIQETKRSEGGGDNLRYRTGEGHHHHHH | not soluble
MDYSHQTSLVPCGQDKYISKNELLLHLKTYNLYYEGQNLQLRHREEEDEFIVEGLLNISWGLRRPIRLQMQDDNERIRPPPSSSSWHSGCNLGAQGTTLKPLTVPKVQISEVDAPPEGDQMPSSTDSRGLKPLQEDTPQLMRTRSDVGVRRRGNVRTPSDQRRIRRHRFSINGHFYNHKTSVFTPAYGSVTNVRINSTMTTPQVLKLLLNKFKIENSAEEFALYVVHTSGEKQKLKATDYPLIARILQGPCEQISKVFLMEKDQVEEVTYDVAQYIKFEMPVLKSFIQKLQEEEDREVKKLMRKYTVLRLMIRQRLEEIAETPATILEHHHHHH | soluble
MAHHHHHHMGDHLGSRFTVIEQIGSGNYGSLYRVIDGEAATLADRIIATKKLQDTINHPHVLREVSAQRHAQKCSPHIVKLLHVVPRDRVRAALVLEYVPLDLRTFLNAFYCNQAKSSAPTWCATAGADELKSAAAPPCHIPLIYVRRMLRGLIEALHCLHARGIAHRDVKPENILVEPLGLGHPLRCVCPPMGSFGPAGEAAGCWVHAPHCPDPRQEERGVTRPMQPQGTLEPCQFFRRYSVALHHELTGDELASAIHRLHCETCRPCPCARAGAGKHAPQQHRDSSEMKTGNSCAQERQADAVDEESPANVDDGEADKLTAPMSPPLMPDVKLCDFGSARHIGTLRLRSAEEQREELTPGPTTPVYCAPEMMLLQRYGTSVDMWAVGAILFEMLTGEFFLGVGTLRSFSGDVVVRDDYCVMHRLNRMFRHLGTPSVEEWRCIAHPHYYPDEMLAHLPQVRDAALFRCLAQPIDTDGSFRRDSGDIKSNGDAKTADVQTDLNVRPSAGTCSCAQAPVNGTTDSHAARASAPPRDATAARHPLNVSDFLYQHIGESGVDFLRSLLRYDPAKRMTSAEALRHPFLSPEVANM | not soluble
MAHHHHHHMFYVDACSQNYRMPNSAPVFSQGFPQPNRAPSLVSPNDVQNCTNDGLVNPHQAPLFTVSQQGSVVAASVLPRTVLWTANGMYGVTQMREGPEEGATRFVPSKSPDGTPVSAMQSMFLPPMQQQQQQQQQASNCPLLYILTTVAVPQTYPQTSLQEQKSQHVTPVTHQIISMKGPSVAPSQSIGINTLNPSCITNNSDAMQTCGSGSKVNVNVVCRHFIKSCCNRRKCRFLHTLNEAPLANI | not soluble
MKFKSRVQMLNYVIGKKPDIMKTVDRRAEKEGVTDDNRLLDYKLLVISVLDAEAVYDEDRPIEEKKFSTSQEVDKYLETRFKEHMDSAWKEMFNK | not soluble
MAIETEDIKYEESFIKNTRGFKLFTCRWLPTNREPRALVFLCHGYGMECSITMNSTARRLVKAGFAVYGMDYEGHGKSDGLSAYISNFDRLVDDVSTHYTAICEREENKWKMRFMLGESMGGAVVLLLGRKNPDFWDGAILVAPMCKIAEEMKPSPFVISILTKLISIIPKWKIIPSQDIIEISYKEPEIRKQVRENPLCSKGRPRLKTAYELLRISNDLEKRLQEVSLPFLVLHGDDDKVTDKAVSQELYKVALSADKTLKLYPGMWHGLLTGETPENIEIVFADVISWLEKRSDYGNDRFESELKQRNDRLNFKK | soluble
